Results reported in the RNAGym collection of RNA variant scans (doi:10.1073/pnas.2313332121).

B1: TPR t1 (parent)
chain: GACCAAUCUGCCCUCAGAGCUCGAGAACAUCUUCGGAUGCAGAGGAGGCAGGCUUCGGUGGCGCGAUAGCGCCAACGUCCUCAACCUCCAAUGCAUCCCACCACAUGAUGAUGCCUGAAGAGCCUUGGUUUUUUG

Variants of: B1
Test: polymerase ribozyme fitness, log enrichment relative to wild type (log ratio); higher = more active; in vitro selection for triplet polymerase activity
In short: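 Libraries of mutants in each subunit of a heterodimeric triplet polymerase ribozyme were generated by PCR and transcribed. In triplicate, each went through one in vitro selection round: annealing with biotinylated primer, partner subunit and triplets; frozen incubation at −7 °C; gel excision of extended constructs; streptavidin-bead capture; RT-PCR. Fitness, taken from Illumina sequencing of input and output libraries, is the logarithm of a genotype's enrichment over wild-type enrichment, averaged across replicates with inverse-variance weights. The logarithm is base 2, and genotypes needed ≥10 input reads and ≥1 read per output to be kept.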

Variant	polymerase ribozyme fitness (log ratio)
C62A U109G	-6.74
G39U G58A A105C	-5.05
A43C G60U U78C C104A G120C	-5.55
A26U G52U	-4.03
G42U G48A G52C C56G G69U G127U	-3.16
G69U C79A C88G	-0.43
C3U A50U G52U	-3.28
C8U C53U C76U	0.843
A37G C72U	-0.261
G61A C70A	-3.99
G63A U112A	-0.0284
U38C G63U G77C U131G	-3.41
A46U G65A	-4.9
G17U C73G	-2.39
C72A C94G C102A C115U	-5.19
C101U C102G	-6.19
G10A A24G	-1.53
C3A G51A	-4.19
A46G G71U	-1.19
A5U C72U U81C	-0.617
C12U G61C A119U	-1.74

Variant	polymerase ribozyme fitness (log ratio)
C22U A26U U54G A118U	-4.35
C12U C104G	-4.58
C11G G47A C88A G127C	-2.42
C34A G36C G45C U112G	-5.74
G10A G60U	-0.0901
G60A C104A	-1.89
C11G U14A G19U U55G U92G A121G	-3.45
G48U G69C	-2.22
G69C C70A G117A A121G	-6.08
A46G C86G C101A C114U	-4.69
C15A C20G G71U A91C C98G C123U U133G	-4.96
C8G A68G G71U A108G	-4.73
G19A C89A	-2.63
U7C G77C	-0.0984
C49G C73A C85U C89A	-2.43
G117A C124U	-0.187
C62U A119G	0.565
C11G C76U U78A	0.137
C79U G110A	-0.826
U78A C79U	0.293
C15U C123G	0.228

Variant	polymerase ribozyme fitness (log ratio)
G71C U92A A119U C124A	-3.83
U21C C72U G93A U96G	-2.4
G57U A84U G110A	-2.32
C12A G65U G110A U131G G135U	-7.22
U9G G36A	-0.196
C49G G71A C124G	0.642
C62G C70A C85A C98U C124U	-6.66
G45U A50G C73U U133A	-1.75
C40G G58A G107U U112A G122U	-5.89
C49A G57U	-0.512
C40A G61U G93C C94G C124U	-1.28
C8A U21A C34G U109G	-6.49
C3U U9A A37U G113A	-0.314
A111C C115A	-3.19
G60A G120U A121C	0.445
C8G A26U U81A	-3.21
G52A G60A C79A C115A U132A	-0.536
G61A C85U G117A U129C	-2.75
G10A C12G C40A C115U A119G G120C U131A	-0.621
U87A G93C	-1.3
C3U C101A G117U G135U	-4.63

Variant	polymerase ribozyme fitness (log ratio)
G42A U130C U133A	-1.86
C12U U78G U96A G120U U131A	-0.178
U59G A66C C101G A121C U132C	-2.35
A27G C28G	-4.25
C53U C88U	0.129
A50U C115A U133C	0.332
C79U C80U U112A	-2.98
U21C A95G	-0.566
C101U C104G U109G	-6.55
C15A G57U A91G C123A	-3.21
U106G	-1.17
C34U A37G C64U U78C G113U U125G	-5.79
C3U G17C C22A A29G G45A G69U C89U	-3.84
C34U C64U G113U	-5.9
C40U G60C U96G A118G	-1.31
C49U G51U C62U C80A	-3.6
G61C G110C	-5.94
G47C G110A	-3.26
A50G C62A U67A A84G C97U G110C A118G	-8.94
C64U G120C	0.769
C8A U132A	0.369
